Literature values, collected in paper PMC3508151.
pKd: −log10 of the molar value. Read-outs that look alike come from different tables or passages of the source.

Assays:
IL-13Rα1 (Homo sapiens) [1] = molecular target: IL-13Rα1 (Homo sapiens) (UniProt P78552); details: cited from earlier work
IL-13Rα1 (Homo sapiens) [2] = molecular target: IL-13Rα1 (Homo sapiens) (UniProt P78552); details: cited from earlier work; remark: listed apart in the source

IL-13Rα1 (Homo sapiens), sequence (P78552 22-343): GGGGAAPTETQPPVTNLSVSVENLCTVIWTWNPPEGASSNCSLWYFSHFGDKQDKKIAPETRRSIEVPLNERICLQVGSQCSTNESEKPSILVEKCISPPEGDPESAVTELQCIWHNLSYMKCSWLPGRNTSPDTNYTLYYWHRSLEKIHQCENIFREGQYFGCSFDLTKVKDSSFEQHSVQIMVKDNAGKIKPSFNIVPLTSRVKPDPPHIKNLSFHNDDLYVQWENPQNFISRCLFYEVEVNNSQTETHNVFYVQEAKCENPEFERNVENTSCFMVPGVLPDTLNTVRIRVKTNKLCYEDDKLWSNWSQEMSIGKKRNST
IL-4, sequence (P05112 25-153): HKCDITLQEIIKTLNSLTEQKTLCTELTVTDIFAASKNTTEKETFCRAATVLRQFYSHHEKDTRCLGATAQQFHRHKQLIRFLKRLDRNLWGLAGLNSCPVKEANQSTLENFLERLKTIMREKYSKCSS
IL-13, sequence (P35225 25-146): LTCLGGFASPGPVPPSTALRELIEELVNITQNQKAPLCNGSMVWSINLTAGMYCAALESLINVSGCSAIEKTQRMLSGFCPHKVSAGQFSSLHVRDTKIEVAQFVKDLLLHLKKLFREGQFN

Row | Substance | pKd (IL-13Rα1 (Homo sapiens) [1]) | pKd (IL-13Rα1 (Homo sapiens) [2])
1 | IL-13 | 7.52 | 
2 | IL-4 (from UniProt P05112) |  | < 6.00
